B1: OR4K15 (parent)
chain: GUUAACGGUCAUAGGCCAUGGAAACUAGGAGCACCAUUUCGCUGCCAGUGAAGAAAUGAACAAAGAAAAUCUGGGCCAGGCAGGCAUCAAAAGAAAUAGUCUUGCGCUCAACCAGAAAGUCUGUAAUCAUUUUAAGGGUA

Variants of: B1
Assay: self-cleavage, relative activity (ratio to wild type); higher = more cleavage; in vitro, sequencing; the parent is a self-cleaving ribozyme

Row | Variant | self-cleavage
1 | G65A A140G | 2.16
2 | G31A U139A | 1.78
3 | C77A A89G | 0.61
4 | U72A A126U | 0.37
5 | U3C A36U | 1.33
6 | A51U U132G | 1.49
7 | U49C A90G | 0.94
8 | A86G U108C | 0.02
9 | A23U U49A | 1.2
10 | A86U C112U | 0.02
11 | A23U A47U | 1.04
12 | A18G U57A | 1
13 | A82G U108A | 0.04
14 | A23C A62G | 0.57
15 | A66G A95C | 1.5
16 | A59G A62G | 1.27
17 | A30G A117U | 0.99
18 | C76U U108A | 0.01
19 | A36U G83A | 1.13
20 | A52U A111G | 0.01
21 | G20A A66G | 1.21

Row | Variant | self-cleavage
22 | U37C A91G | 1.36
23 | A23G G115A | 0.05
24 | A51G U87G | 0.43
25 | U72C A134G | 0.16
26 | A60C A95G | 1.47
27 | A51G C77U | 1.46
28 | U57C A89U | 0.77
29 | G53U A118G | 1.67
30 | G80A A96G | 0.18
31 | G20A A64G | 1.49
32 | G15A A94G | 1.73
33 | A98C U100C | 2.44
34 | U100C A135U | 2.37
35 | U70G A94G | 1.61
36 | A62G U108A | 0.01
37 | A78U A114C | 0.05
38 | A69G G106A | 0.02
39 | U2C G73A | 0.22
40 | C25U G136A | 1.84
41 | U9C A90U | 2.21
42 | U72C A86C | 0.28

Row | Variant | self-cleavage
43 | A67U A117G | 2.28
44 | A52G A62C | 1.53
45 | A30C A96G | 1.43
46 | A22U A63G | 1.45
47 | U2C A140U | 1.55
48 | A33U A114U | 0.08
49 | A33U A114G | 0.64
50 | A13U U122A | 1.5
51 | A55G G83A | 0.71
52 | A13G A110G | 0.13
53 | U39A | 1.35
54 | U108A G123U | 0.01
55 | U19C U49C | 1.6
56 | U39C A92G | 1.3
57 | A86G C109U | 0.22
58 | U38C U39A | 0.89
59 | U12C U100A | 0.63
60 | A66U U122G | 2.33
61 | A47G A135G | 1.27
62 | A64G A95G | 1.12
63 | U70C A114C | 0

Row | Variant | self-cleavage
64 | U38C A86G | 1.65
65 | A55G A90G | 0.76
66 | A64U A86G | 1.85
67 | A30U A63G | 2.01
68 | A24U U132C | 2.18
69 | U2A A117G | 0.59
70 | A18G A91G | 1.41
71 | U19C A66G | 1.62
72 | A33G A82G | 0.35
73 | U26C A59G | 0.96
74 | A110U U120C | 0.08
75 | A68C A90G | 1.24
76 | G7A U19C | 1.14
77 | C42G A51G | 1.47
78 | A140G | 1.15
79 | U39A A52G | 1.21
80 | U9C A60U | 1.9
81 | A51C U131C | 1.28
82 | A91G U108C | 0.02
83 | A11U G58A | 0.75
